# Substrate: [H][C@@]1(O[C@H]2[C@H](O)[C@@H](O)[C@H](Oc3ccc([N+](=O)[O-])cc3)O[C@@H]2CO)O[C@H](CO)[C@H](O)[C@H](O)[C@H]1O
# Experiment: p-nitrophenol release, A405, Michaelis-Menten fit
# Format: biochemical, Trichoderma reesei
# Conditions: 20 mM acetate pH 5.0, 100 mM NaCl, 40 °C
# Method: p-nitrophenol release, A405, Michaelis-Menten fit on […] | Vmax and Km were determined using p-nitrophenyl-β-D-lactopyranoside (pNPL, Sigma) as substrate
protein,measurement,value
"TrCel7A (Trichoderma reesei) (protein, full length wild type (catalytic domain, linker, CBM1), secreted and purified from Trichoderma reesei AST1116 (QM6A, cbh1 deletion) host, pTrEno) QSACTLQSETHPPLTWQKCSSGGTCTQQTGSVVIDANWRWTHATNSSTNCYDGNTWSSTLCPDNETCAKNCCLDGAAYASTYGVTTSGNSLSIGFVTQSAQKNVGARLYLMASDTTYQEFTLLGNEFSFDVDVSQLPCGLNGALYFVSMDADGGVSKYPTNTAGAKYGTGYCDSQCPRDLKFINGQANVEGWEPSSNNANTGIGGHGSCCSEMDIWEANSISEALTPHPCTTVGQEICEGDGCGGTYSDNRYGGTCDPDGCDWNPYRLGNTSFYGPGSSFTLDTTKKLTVVTQFETSGAINRYYVQNGVTFQQPNAELGSYSGNELNDDYCTAEEAEFGGSSFSDKGGLTQFKKATSGGMVLVMSLWDDYYANMLWLDSTYPTNETSSTPGAVRGSCSTSSGVPAQVESQSPNAKVTFSNIKFGPIGSTGNPSGGNPPGGNRGTTTTRRPATTTGSSPGPTQSHYGQCGGIGYSGPTVCASGTTCQVLNPYYSQCL",Km,2195 ± 880 µM
same,kcat,0.2377 ± 0.0175 s⁻¹
